The DeepSol protein solubility set

Assay: soluble on expression in E. coli; label from the status in PepcDB or PDB records
With “GSHMKISARNVFKGTVSALKEGAVNAEVDILLGGGDKLAAVVTLESARSLQLAAGKEVVAVVKAPWVLLMTDSSGYRLSARNILTGTVKTIETGAVNAEVTLALQGGTEITSMVTKEAVAELGLKPGASASAVIKASNVILGVPA” the “soluble on expression in E. coli” value was “soluble”.
In the case of “MANRCRLKPYNRRQNNACSNRTHTLPANGLRNLRLLDLRTKVTELKHIGGQSTAAIADLAGEMRRLAKKSKMLLKGLWPFLSSTISAFKINQSLFKHYYKTVQLLNCKHRKKNY”, the “soluble on expression in E. coli” value is reported as “not soluble”.
In the case of “MKDNERRILLGRVVGGFGLRGEIKIESWTEPRDAIFRYQPWLLRSPTGTESMLNGARGYETGKRLIATFPGINDRNGVEAICGTEIYVPRSALPPPHPDEYYWVDLEGLQVHTLEGVVLGSVSHLFSNGANDVIVIHGERERLIPFVQPDYVKSVDFEAERIVVDWDPEFLEHHHHHH”, the “soluble on expression in E. coli” value is reported as “soluble”.
With “MAWMEVRGKRFEILVRPELAFRYKEKGDVDLEDVLWTDTIYRDVRKGLKASPEEVKKAFGTSDPRRVAEKILKEGEIQLTEEQRRRLLEAKRRQIISYIARNAIDPTTGRPIPEARIEAALEEVRFPINLWRDAESQAVEAVRLIARVMPIRLARALLEVKIPPPHSGRAYQALMRMGEVKKADWLPDGSLKAELEIPAGAQVEVTSRIQALARGAAEVKVKKVAAAAAAALEHHHHHH” the “soluble on expression in E. coli” value was “soluble”.
In the case of “MSSISSSSSNVRMDRRFDWVGPPDNLSKIRKIMLRRVDNESELERQYRLAREELNQWNSDFWAEHNQLFDRQKSDFVERKQQELGRLEHVSANELSEFYRDFLNDRHVAMMAYNKEWYRRNLQLIWPALKVNVVRFFRMARR”, the “soluble on expression in E. coli” value is reported as “not soluble”.
In the case of “MNTRTIYLAGGSFWGLEAYFQRIDGVVDAVSGYANGNTKNPSYEDVSYRHTGHAETVKVTYDADKLSLDDILQYFFRVVDPTSLNKQGNDTGTQYRSGVYYTDPAEKAVIAAALKREQQKYQLPLVVENEPLKNFYDAEEYHQDYLIKNPNGYCHIDIRKADEPLPGKTKTAPQGKGFDAATYKKPSDAELKRT”, the “soluble on expression in E. coli” value is reported as “soluble”.
For “MRTMPDAPALHLTAIDSHAHVFSRGLNLASQRRYAPNYDAPLGDYLGQLRAHGFSHGVLVQPSFLGTDNRYLLSALQTVPGQLRGVVMLERDVEQATLAEMARLGVRGVRLNLMGQDMPDLTGAQWRPLLERIGEQGWHVELHRQVADIPVLVRALQPYGLDIVIDHFGRPDARRGLGQPGFAELLTLSGRGKVWVKVSGIYRLQGSPEENLAFARQALCALEAHYGAERLMWGSDWPHTQHESEVSFGSAVEQFEALGCSAQLRQALLLDTARALFGFELEHHHHHH”, the “soluble on expression in E. coli” value was “soluble”.
With “MIKNRQEILFLYDVTDANPNGDPLDENKPRIDEETGINIVTDVRLKRTIRDYLYDYKGFDGSNGKDIFVREIESEKGGIKDGKARAKDFNENVDEILQKAIDIRLFGGVIPLDKASITFTGPVQFNMGRSLNKVNLKHIKGTGAFASGEGKAQKTFREEYIVPYSIIAFHGIINENAAKRTGLTDEDVDLLDDAMWNGTKNLITRSKMGHMPRLMLRVVYKPGENFFIGDLQNRISLNFDVEEEKIRSIKDFSIKLDELIDELANYGDKIEKVVFVADKNLRLSYKGREINLKDIKDIRFEEKTF” the “soluble on expression in E. coli” value was “soluble”.
In the case of “MSTLKVVSSKLAAEIDKELMGPQIGFTLQQLMELAGFSVAQAVCRQFPLRGKTETEKGKHVFVIAGPGNNGGDGLVCARHLKLFGYNPVVFYPKRSERTEFYKQLVHQLNFFKVPVLSQDEGNWLEYLKPEKTLCIVDAIFGFSFKPPMREPFKGIVEELCKVQNIIPIVSVDVPTGWDVDKGPISQPSINPAVLVSLTVPKPCSSHIRENQTTHYVGGRFIPRDFANKFGFEPFGYESTDQILKL”, the “soluble on expression in E. coli” value is reported as “soluble”.
In the case of “MGSDKIHHHHHHMYRIRVFGDPVLRKRAKPVTKFDENLKKTIERMIETMYHYDGVGLAAPQVGISQRFFVMDVGNGPVAVINPEILEIDPETEVAEEGCLSFPEIFVEIERSKRIKVKYQNTRGEYVEEELEGYAARVFQHEFDHLNGVLIIDRISPAKRLLLRKKLMDIARTVKR”, the “soluble on expression in E. coli” value is reported as “soluble”.
In the case of “DYSYLFGQGGTELFGEFAGAANGAVGTINGLRYTHPVGGSYMLVGRYIPADYWSYYRGAFARYSRPGNEWGVMGRAAWELPSDRTVRAFADYYGSFVPRFGRKEKTEALYWMFEGEKRLSALSWSCRIRGTADKRYRRSLAVRLRGRYMFDERWRLMASLQWSRSNSFDRELQTWQAPTGGKSFALRADYSGGKLLRVCSMDAVAFDTDSFADRLYEAVHNPRHHYSSAFFYGRGVRLGVFVRIAPLPQVEVESRIDHLLRRDTDTIGSAGELIRGQARTHLFMTVRYR”, the “soluble on expression in E. coli” value is reported as “not soluble”.
In the case of “MARILVIEDEPLVGHMLRRFLERAGHDVVWAPNGEVGLRRLAEGFDLVVCDLIMPGIPGEEVIRRIREEAGPPVLAVSASVSRESQRRALEAGAQAFLGKPFEAQAFLRVVEGLLRGT”, the “soluble on expression in E. coli” value is reported as “soluble”.
With “MFALIQRGQIYTDRAGYPVEITRSTEHSVFFRRMDGRTGRVRIGEFSSLFEHIDHLEYHKILAETEQEKHLKKLRAMQRK” the “soluble on expression in E. coli” value was “not soluble”.
For “MDWEKVGLKMGLEIHQQLDTESKLFCPCRTELTDSEPDHDIVRNLRPTQSELGKFDRAAFEEAMRKLHFHYENYHEETCLVEADEEPPHPLNPEALEIAVTIALLLNMRVVDEFHTMRKQVIDGSNTGGFQRTGLVATDGHLETPQGTVKIENLCLEEDAARRIRETGDGVVFRLDRLGIPLVEITTDPSMSDPQQLREVAYQIGQILRSTRVKRGLGTIRQDLNISIRDGARVEVKGVQDLDLIPEIVEREVKRQLSLVEIRDTLQERGAVVEDKIFDVSEVFADTESRIISSAESVLAVKLRGFDGLIGVEIQPGRRLGTEMADYAKKRGVSGIFHTDELPAYGITEEEVRGLRDAVGASQGDAVVMVAHERVTAENALREVIRRAEMAIQGVPEETRKALPDGNTQYLRPLPTSSRMYLETDIPLFRIEDDLLEGIRRNLPELPSEKKERIMRDYGLSEDLASQLVKRNLVDEFEALTEFRVDTTVIASLLAYTLRELRREGHDVDGLGLDELRDAIKLLEVGKISKDALRDIVACMADEGLAAEDAARKLNLLLLAEDEIESIIQEIVEGNLDMISERGMGAMGPLMGQAMGRLRGRADGKVVNRILREKIQERL”, the “soluble on expression in E. coli” value was “soluble”.
For “GERRIPESRILRREVVEATSAVAAALQIPARAPVIEMTRVRLIDGAPMLAEEIWLPYDRFAAFSRLELDSIGDLLYPVYEAHCNQIVASATETLTVEAIGPAHARLLRIEPGTPAVVIERLAYGYDRRPLEWRRSRGPASEFIYQAEIR”, the “soluble on expression in E. coli” value was “not soluble”.
In the case of “ANGLFYSLRGNFSFARNKIIENDEPKPKYEYQDARGRRIDQTFGLVALGFFKDQDDIKNSPKQTFQSTVRPGDIKYKDINGDGVVDEYDKVAIGDPRTPEIMFGFGGTVAYKNFDVSLFFTGAAKTSFFLEGATVYPFLNGEGTWNVLREVYDNRWTSETAATAKYPIVLNANSYNNYQTSTMYMRNGSYLRLKSAEIGYTFKGRLIDKMFMDNIRLFCNGQNLLTLDYIKIVDPESNNGVGNYPMQRTINFGFQINFK”, the “soluble on expression in E. coli” value is reported as “not soluble”.
With “MEPEEERIRYSQRLRGTMRRRYEDDGISDDEIEGKRTFDLEEKLHTNKYNANFVTFMEGKDFNVEYIQRGGLRDPLIFKNSDGLGIKMPDPDFTVNDVKMCVGSRRMVDVMDVNTQKGIEMTMAQWTRYYETPEEEREKLYNVISLEFSHTRLENMVQRPSTVDFIDWVDNMWPRHLKESQTESTNAILEMQYPKVQKYCLMSVRGCYTDFHVDFGGTSVWYHIHQGGKVFWLIPPTAHNLELYENWLLSGSQGDIFLGDRVSDCQRIELKQGYTFVIPSGWIHAVYTPTDTLVFGGNFLHSFNIPMQLKIYNIEDRTRVPNKFRYPFYYEMCWYVLERYVYCITNRSHLTKEFQKESLSMDLELNGLESGNGDEEAVDREPRQVHLTHFELEGLRCLVDKLESLPLHKKCVPTGIEDEDALIADVKILLEELANSDPKLALTGVPIVQWP” the “soluble on expression in E. coli” value was “soluble”.
For “MSTSWRIRIMLTIHAKLVEAMLAQAHKDHPFEICGVIAGPEKSNLPLRLIPMRNAAQSETFFKFDPQEQLQVWREMEARGEEPIVIYHSHTHTPAYPSRTDVQYASQPQSHYVIVPTDPAYGEEIRSFRILDGMVTEERIRMINSYKAEWELSMEAMVALEHHHHHH”, the “soluble on expression in E. coli” value was “soluble”.
In the case of “MEIYLVFVDAASNSNKFWTAKVEQNQLTVQWDRVGYKAQTKVHQFTSQAQAANKYNNLVFEKKAKGYQESQPQIESCGVVDIRRAMQLLNGLRSYVTNRNFNADYINLLNQYLKIIPTPLGMQLEPYRIFTSVADVDHQRELLSSLIPATPVAVTQAKQMPESQEKIVSLRGIHKNLWRHFLEHHHHHH”, the “soluble on expression in E. coli” value is reported as “not soluble”.
With “PRLLCTATKQKNSGQNLEEDMGQSEQKADPPATEKTLLEEKVKLEEQLKETVEKYKRALADTENLRQRSQKLVEEAKLYGIQAFCKDLLEVADVLEKATQCVPKEEIKDDNPHLKNLYEGLVMTEVQIQKVFTKHGLLKLNPVGAKFDPYEHEALFHTPVEGKEPGTVALVSKVGYKLHGRTLRPALVGVVKEA” the “soluble on expression in E. coli” value was “not soluble”.
In the case of “MMKEVLDAFRKSGEAEGFGHNKMSSSEVASHYNKVLQVGIEGRKESRIFFMRNMNNWVKSQLINDAKQRVNDNGVNNPRVLDLACGKGGDLKKWDIAGAKDVVMADVADVSIQQAEERYKQMFGYKKNNIFTVQFIVADCTKENLEDRIENKDPFDLVSCQFALHYSFVDEASARIFLKNAVGMLKPGGVFIGTLPDADRIVWSMRNGENGQFANEVCKITYENVEELAEGKVPLFGAKFHFSLDEQVNCPEFLAYFPLVKHLLEELDMELLFVHNFAEAINKWLEPGRRLLESMTGLETYPNEKLSGKSDDEYLEAKAKLDAFPEDERIKTMGTLSKSEWEAICMYLVFGFRKKKSEAEKTEEEPATTKPVAESESEQKEVTESEEKEDQEDCEHQEAQTN”, the “soluble on expression in E. coli” value is reported as “soluble”.
In the case of “RLADRMSQEGWEDPGSSSAQAAAIEHDTFGRDNDGDVILLFTAKDGIAHSPSFDKIKKYLDSLKTDHSDHVDAVTSYFDKRNAQLISKDGTTAFAAVSLRGDGEQTLKDFRAIESDLHPQFPEVTVQVAGSTAVADALDKGMSGDIKRAE”, the “soluble on expression in E. coli” value is reported as “not soluble”.
In the case of “MGSDKIHHHHHHMANSNMQATDAVAQDTASASGEFDALLNQAFRPKTTQAAKAVEAAVQTLAQQALANTITVSDDAYKSISAIIAQIDFKLTEQIKLILQHPDWQKLESSWRGMEHLVYNTETDEKLKIRFMNLSKDELRRNMKRYKGIAWDQSPMFKKLYEAEYGQLGGEPYGCIIADYYFDHTPPDVDLLGSIAKVAASAHAPFIAGASPSVLQMDSWQELANPRDLTKIVTQNLEYAPWNSLRASEDSRYIGLTMPRFLARLPYGAKTNPVDEFDFEEDADGSDHTKYVWSNAAYAMGVNINRSFKHYGWCTLIRGVESGGAVENLPCHTFPTDDGGVDMKCPTEIAISDRREAELAKNGFIPLIHRKNSDYAAFIGAQSLQKPQEYYDPDATANANLSARLPYLFACSRFAHFLKCIVRDKIGSFKEREDMQRWLNEWIMNYVDADPVNSSQETKARRPLAAAEVVVEEVEGNPGYYDAKFFLRPHFQLEGLTGSLRLVTKLPSVKQGNA”, the “soluble on expression in E. coli” value is reported as “not soluble”.
In the case of “MGKIIAIANQKGGVGKTTTSVNLGAGLAQVGKKVLLVDIDAQGNATTGVGIEKSELDQCIYNVLVEDADVQGVIQKTATENLDVLPATIQLAGAEIELVPTISREVRLQRALQPVRDEYDYIIIDCPPSLGLLTINALTAADSVIIPVQCEYYALEGLSQLLNTVRLVQKHLNKNLAIQGVLLTMLDARTNLGIQVIDEVKKYFRDKVYRSIIPRNVRLSEAPSHGKPIMQYDAKSRGAEVYIDLAEEVIAGG”, the “soluble on expression in E. coli” value is reported as “not soluble”.
In the case of “MEVKEVELELSSEATFLSKTSIGEITAGEKGLNPMELLLVSIGSCSGVDVYHILKKKRQEVKDIKIFLKGKRREKHPKIYEEIEIKYVAVGKVEEKALEQAVKLSTEKYCSVLAMVKPSTNLKISWEVKWEE”, the “soluble on expression in E. coli” value is reported as “soluble”.
